T1: FcgRIIaR (human, UniProt P12318 34-217)
T1 construct: extracellular domain; Allotype R131; also called FcγRIIa R; FcgRIIa type R; not shown: His tag attached to the C terminus
T1 sequence (looked up): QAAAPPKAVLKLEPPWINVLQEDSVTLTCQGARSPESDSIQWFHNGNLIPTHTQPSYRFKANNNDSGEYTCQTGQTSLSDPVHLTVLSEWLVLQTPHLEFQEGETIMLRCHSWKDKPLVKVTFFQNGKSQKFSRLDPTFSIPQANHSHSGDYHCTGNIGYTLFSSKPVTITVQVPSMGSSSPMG

T2: FcgRIIaH (human, UniProt P12318 34-217)
T2 construct: extracellular domain; Allotype H131; also called FcγRIIa H; FcgRIIa type H; not shown: His tag attached to the C terminus
T2 sequence (looked up): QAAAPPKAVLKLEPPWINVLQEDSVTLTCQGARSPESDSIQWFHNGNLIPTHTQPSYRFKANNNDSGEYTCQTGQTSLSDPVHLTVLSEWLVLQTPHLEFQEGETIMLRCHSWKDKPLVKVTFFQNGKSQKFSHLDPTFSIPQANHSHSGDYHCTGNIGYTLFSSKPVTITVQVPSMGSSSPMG

T3: FcgRIIb (human, UniProt P31994 43-217)
T3 construct: extracellular domain; also called FcγRIIb; CD32B; not shown: His tag attached to the C terminus
T3 sequence (looked up): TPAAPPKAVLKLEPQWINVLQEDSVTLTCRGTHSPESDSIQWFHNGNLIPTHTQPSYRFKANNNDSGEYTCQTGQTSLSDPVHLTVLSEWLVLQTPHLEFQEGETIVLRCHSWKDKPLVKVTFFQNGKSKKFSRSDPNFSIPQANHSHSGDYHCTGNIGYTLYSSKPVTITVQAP

T4: FcgRIIaR (human, UniProt P12318 34-217)
T4 construct: extracellular domain; also called FcγRIIa R; FcγRIIa type R; not shown: His tag at the C terminus
T4 sequence (looked up): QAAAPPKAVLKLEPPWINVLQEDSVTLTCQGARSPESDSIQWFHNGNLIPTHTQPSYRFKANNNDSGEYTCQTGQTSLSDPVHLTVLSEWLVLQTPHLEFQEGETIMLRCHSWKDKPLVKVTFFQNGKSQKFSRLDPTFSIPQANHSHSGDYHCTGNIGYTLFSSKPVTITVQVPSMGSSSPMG

T5: FcgRIIaH (human, UniProt P12318 34-217)
T5 construct: extracellular domain; also called FcγRIIa H; FcγRIIa type H; not shown: His tag at the C terminus
T5 sequence (looked up): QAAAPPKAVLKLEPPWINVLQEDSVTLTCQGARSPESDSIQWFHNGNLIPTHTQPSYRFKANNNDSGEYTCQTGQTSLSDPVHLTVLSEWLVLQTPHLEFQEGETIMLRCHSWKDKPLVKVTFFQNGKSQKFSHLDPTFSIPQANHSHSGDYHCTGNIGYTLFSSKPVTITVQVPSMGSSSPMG

T6: FcgRIIb (human, UniProt P31994 43-217)
T6 construct: extracellular domain; also called FcγRIIb; 2b; not shown: His tag at the C terminus
T6 sequence (looked up): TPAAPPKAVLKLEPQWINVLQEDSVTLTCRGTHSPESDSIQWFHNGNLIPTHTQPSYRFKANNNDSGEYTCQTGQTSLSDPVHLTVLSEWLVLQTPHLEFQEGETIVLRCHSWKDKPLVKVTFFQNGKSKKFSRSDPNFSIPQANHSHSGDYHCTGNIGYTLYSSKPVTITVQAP


Key:
[1] = biological target: T7, FcgRIa (human, UniProt P12314 16-292); experiment: SPR (Biacore); KD of H240-Kn120/H240-Hl068/L73-k0 divided by KD of the sample
T7 construct: extracellular domain; Soluble extracellular domain expressed in FreeStyle293 cells; also called FcγRIa; FcγRI; not shown: His tag attached to the C terminus
T7 sequence (P12314 16-292): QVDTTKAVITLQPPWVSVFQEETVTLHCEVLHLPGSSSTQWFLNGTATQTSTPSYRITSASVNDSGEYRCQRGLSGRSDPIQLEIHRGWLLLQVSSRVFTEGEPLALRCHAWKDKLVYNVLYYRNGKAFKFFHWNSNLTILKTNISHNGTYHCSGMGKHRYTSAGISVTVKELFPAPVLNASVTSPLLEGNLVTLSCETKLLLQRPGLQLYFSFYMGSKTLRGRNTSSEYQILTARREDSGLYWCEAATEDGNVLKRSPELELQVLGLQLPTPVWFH
Protocol: (§1) Analysis of interaction between objective antibody and the FcγR was carried out using Biacore T100 (GE Healthcare), Biacore T200, Biacore A100, and Biacore 4000. HBS-EP+ (GE Healthcare) was used as the running buffer, and the measurement temperature was set to 25° C. Chips produced by immobilizing the antigen peptide by the amine coupling method to a Series S sensor Chip CM5 (GE Healthcare), chips produced by allowing preliminarily biotinylated antigen peptides to interact with and immobilize onto a Series S Sensor Chip SA (certified) (GE Healthcare), chips produced by immobilizing Protein L (ACTIGEN, BioVision) to Series S Sencor Chip CM5 (GE Healthcare), or chips produced by immobilizing Protein A/G (Thermo Scientific) to Series S Sencor Chip CM5 (GE Healthcare) were used. Antibodies of interest were captured onto these chips, and allowed to interact to each FcγR diluted with running buffer. To regenerate and repeatedly use the chip, the antibodies captured onto the chip were washed off by reacting 10 mM glycine-HCl, pH 1.5.

[2] = biological target: T1, FcgRIIaR; experiment: as above
Protocol: as §1

[3] = biological target: T2, FcgRIIaH; experiment: as above
Protocol: as §1

[4] = biological target: T3, FcgRIIb; experiment: as above
Protocol: as §1

[5] = biological target: T8, FcgRIIIaV (human, UniProt P08637 17-208); experiment: as above
T8 construct: extracellular domain; Allotype V158; also called FcγRIIIa V; not shown: His tag attached to the C terminus
Protocol: as §1
T8 sequence (P08637 17-208 F176V limits assumed): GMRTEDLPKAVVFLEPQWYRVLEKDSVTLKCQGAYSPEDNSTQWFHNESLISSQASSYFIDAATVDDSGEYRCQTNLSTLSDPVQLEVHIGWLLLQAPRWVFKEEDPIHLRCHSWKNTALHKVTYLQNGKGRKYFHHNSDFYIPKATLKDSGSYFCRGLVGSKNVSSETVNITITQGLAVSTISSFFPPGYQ

[6] = biological target: T4, FcgRIIaR; experiment: SPR (Biacore); KD of H240-Kn033/H240-Hl033/L73-k0 divided by KD of the variant
Protocol: (§2) Next, the amino acid at position 330 was examined. The A330M alteration has been introduced into H240-Hl076 of H240-Kn125/H240-Hl076/L73-k0. […] L73-k0 was used as the common antibody L chain. Binding of the produced variants to FcgRIa, FcgRIIaR, FcgRIIaH, FcgRIIb, FcgRIIIaF, and FcgRIIIaV was measured according to the method of Reference Example 8.
as §1

[7] = biological target: T5, FcgRIIaH; experiment: as above
Protocol: as §2, §1

[8] = biological target: T6, FcgRIIb; experiment: as above
Protocol: as §2, §1

[9] = biological target: T9, FcgRIIIaF (human, UniProt P08637 17-208); experiment: as above
T9 construct: extracellular domain; Polymorphic site after J. Clin. Invest; also called FcγRIIIa F; 3aF; not shown: His tag at the C terminus
T9 sequence (P08637 17-208): as the sequence (P08637 17-208 F176V limits assumed) above, with V160F counted along it
Protocol: as §2, §1

[10] = biological target: T10, FcgRIIIaV (human, UniProt P08637 17-208); experiment: as above
T10 construct: extracellular domain; Polymorphic site after J. Clin. Invest; also called FcγRIIIa V; 3aV; not shown: His tag at the C terminus
Protocol: as §2, §1
T10 sequence (P08637 17-208 F176V limits assumed): as the sequence (P08637 17-208 F176V limits assumed) above

relative KD [1]	relative KD [2]	relative KD [3]	relative KD [4]	relative KD [5]	fold 2aR [6] [fold]	fold 2aH [7] [fold]	fold 2b [8] [fold]	fold 3aF [9] [fold]	fold 3aV [10] [fold]	Binder
0.4	1.1	1.6	1	1.1	–	–	–	–	–	H240-Kn149/H240-Hl068/L73-k0 (antibody, human IgG1, kappa, Heterodimerized anti-epiregulin IgG1 antibody; L328W and K334L in H240-Kn120) heavy 1: QDQLVQSGAEVKKPGASVKVSCKASGFNIKDTYIQWVRQAPGQGLEWMGRIDPLRKQTKYREKFEGRVTITADTSTNTAYMELSSLRSEDTAVYYCVRSGREFDYWGQGTLVTVSSASTKGPSVFPLAPSSKSTSGGTAALGCLVKDYFPEPVTVSWNSGALTSGVHTFPAVLQSSGLYSLSSVVTVPSSSLGTQTYICNVNHKPSNTKVDKKVEPKSCDKTHTCPPCPAPEYYWGPMVFLFPPKPKDTLMISRTPEVTCVVVDVSDEDPEVKFNWYVDGVEVHNAKTKPREEQYNATYRVVSVLTVLHQDWLNGKEYKCKVSNKDWPAPIELTISKAKGQPREPQVCTLPPSRDELTKNQVSLWCLVKGFYPSDIAVEWESNGQPENNYKTTPPVLDSDGSFFLYSKLTVDKSRWQQGNVFSCSVMHEALHNHYTQKSLSLSP heavy 2: QDQLVQSGAEVKKPGASVKVSCKASGFNIKDTYIQWVRQAPGQGLEWMGRIDPLRKQTKYREKFEGRVTITADTSTNTAYMELSSLRSEDTAVYYCVRSGREFDYWGQGTLVTVSSASTKGPSVFPLAPSSKSTSGGTAALGCLVKDYFPEPVTVSWNSGALTSGVHTFPAVLQSSGLYSLSSVVTVPSSSLGTQTYICNVNHKPSNTKVDKKVEPKSCDKTHTCPPCPAPELLGGPSVFLFPPKPKDTLMISRTPEVTCVVVDVSHEEPEVKFNWYVDGVEVHNAKTKPREEQYNSTYRVVSVLTVLHQDWLNGKEYKCKVSNDALPKPIEETISKAKGQPREPQVYTLPPSRCELTKNQVSLSCAVKGFYPSDIAVEWESNGQPENNYKTTPPVLDSDGSFFLVSKLTVDKSRWQQGNVFSCSVMHEALHNHYTQKSLSLSP light: DIQMTQSPSSLSASVGDRVTITCRASQDIHKYIAWYQQKPGQAPRLLIQYTSTLQPGVPSRFSGSGSGTDYTFTISSLQPEDIATYYCLQYEQLRTFGGGTKVEIKRTVAAPSVFIFPPSDEQLKSGTASVVCLLNNFYPREAKVQWKVDNALQSGNSQESVTEQDSKDSTYSLSSTLTLSKADYEKHKVYACEVTHQGLSSPVTKSFNRGEC
–	–	–	–	–	1	1	1	1	1	H240-Kn033/H240-Hl033/L73-k0 (antibody, human IgG1, kappa, Anti-epiregulin IgG1 with knobs-into-holes alterations only) heavy 1: not shown heavy 2: not shown light: DIQMTQSPSSLSASVGDRVTITCRASQDIHKYIAWYQQKPGQAPRLLIQYTSTLQPGVPSRFSGSGSGTDYTFTISSLQPEDIATYYCLQYEQLRTFGGGTKVEIKRTVAAPSVFIFPPSDEQLKSGTASVVCLLNNFYPREAKVQWKVDNALQSGNSQESVTEQDSKDSTYSLSSTLTLSKADYEKHKVYACEVTHQGLSSPVTKSFNRGEC
–	–	–	–	–	2.2	0.8	5.3	31.9	15.5	H240-Kn032/H240-Hl032/L73-k0 (antibody, human IgG1, kappa, S239D/A330L/I332E in both H chains) heavy 1: QDQLVQSGAEVKKPGASVKVSCKASGFNIKDTYIQWVRQAPGQGLEWMGRIDPLRKQTKYREKFEGRVTITADTSTNTAYMELSSLRSEDTAVYYCVRSGREFDYWGQGTLVTVSSASTKGPSVFPLAPSSKSTSGGTAALGCLVKDYFPEPVTVSWNSGALTSGVHTFPAVLQSSGLYSLSSVVTVPSSSLGTQTYICNVNHKPSNTKVDKKVEPKSCDKTHTCPPCPAPELLGGPDVFLFPPKPKDTLMISRTPEVTCVVVDVSHEDPEVKFNWYVDGVEVHNAKTKPREEQYNSTYRVVSVLTVLHQDWLNGKEYKCKVSNKALPLPEEKTISKAKGQPREPQVCTLPPSRDELTKNQVSLWCLVKGFYPSDIAVEWESNGQPENNYKTTPPVLDSDGSFFLYSKLTVDKSRWQQGNVFSCSVMHEALHNHYTQKSLSLSP heavy 2: QDQLVQSGAEVKKPGASVKVSCKASGFNIKDTYIQWVRQAPGQGLEWMGRIDPLRKQTKYREKFEGRVTITADTSTNTAYMELSSLRSEDTAVYYCVRSGREFDYWGQGTLVTVSSASTKGPSVFPLAPSSKSTSGGTAALGCLVKDYFPEPVTVSWNSGALTSGVHTFPAVLQSSGLYSLSSVVTVPSSSLGTQTYICNVNHKPSNTKVDKKVEPKSCDKTHTCPPCPAPELLGGPDVFLFPPKPKDTLMISRTPEVTCVVVDVSHEDPEVKFNWYVDGVEVHNAKTKPREEQYNSTYRVVSVLTVLHQDWLNGKEYKCKVSNKALPLPEEKTISKAKGQPREPQVYTLPPSRCELTKNQVSLSCAVKGFYPSDIAVEWESNGQPENNYKTTPPVLDSDGSFFLVSKLTVDKSRWQQGNVFSCSVMHEALHNHYTQKSLSLSP light: DIQMTQSPSSLSASVGDRVTITCRASQDIHKYIAWYQQKPGQAPRLLIQYTSTLQPGVPSRFSGSGSGTDYTFTISSLQPEDIATYYCLQYEQLRTFGGGTKVEIKRTVAAPSVFIFPPSDEQLKSGTASVVCLLNNFYPREAKVQWKVDNALQSGNSQESVTEQDSKDSTYSLSSTLTLSKADYEKHKVYACEVTHQGLSSPVTKSFNRGEC

Source: patent US20150344570A1 (published 2015)
